Residue numbers refer to the chain shown, from its start. Numbers in names are those of the source.
Biological target: T1, Fluorogenic peptide Glu(EDANS)-GDYELQGPEDLA-Lys(Dabcyl), p48/p41 cleavage site of the HOV polyprotein
T1 chain: EGDYELQGPEDLAK

B1: Houston virus protease (HOV Pro), GII.4 norovirus protease, wild-type (protein)
chain: APPSIWSRIVNFGSGWGFWVSPSLFITSTHVIPQGAKEFFGVPIKQIQVHKSGEFCRLRFPKPIRTDVTGMILEEGAPEGTVVTLLIKRSTGELMPLAARMGTHATMKIQGRTVGGQMGMLLTGSNAKSMDLGTTPGDCGCPYIYKRGNDYVVIGVHTAAARGGNTVICATQGSEGEATLE
FRET proteolytic activity at pH 8, 6.5 and 5: while HOV Pro was active at pH 8, it showed no activity at pH 6.5 and pH 5
kcat/Km, FRET assay at pH 8: kcat/Km=843.7 M^-1s^-1

B2: HOV Pro R112A mutant (protein)
chain: B1 chain with R112A
FRET proteolytic activity at pH 6.5: Unlike the wild-type HOV Pro, R112A mutant was active at pH 6.5
kcat/Km, FRET assay at pH 8: kcat/Km=1215 M^-1s^-1

From patent US20190275101
